In assay [1] the target is T1, Cdc4 (budding yeast, UniProt P07834 1-779).
T1 construct: Endogenous protein in yeast lysates, detected with anti-Cdc4 antibodies; also called endogenous Cdc4
T1 sequence: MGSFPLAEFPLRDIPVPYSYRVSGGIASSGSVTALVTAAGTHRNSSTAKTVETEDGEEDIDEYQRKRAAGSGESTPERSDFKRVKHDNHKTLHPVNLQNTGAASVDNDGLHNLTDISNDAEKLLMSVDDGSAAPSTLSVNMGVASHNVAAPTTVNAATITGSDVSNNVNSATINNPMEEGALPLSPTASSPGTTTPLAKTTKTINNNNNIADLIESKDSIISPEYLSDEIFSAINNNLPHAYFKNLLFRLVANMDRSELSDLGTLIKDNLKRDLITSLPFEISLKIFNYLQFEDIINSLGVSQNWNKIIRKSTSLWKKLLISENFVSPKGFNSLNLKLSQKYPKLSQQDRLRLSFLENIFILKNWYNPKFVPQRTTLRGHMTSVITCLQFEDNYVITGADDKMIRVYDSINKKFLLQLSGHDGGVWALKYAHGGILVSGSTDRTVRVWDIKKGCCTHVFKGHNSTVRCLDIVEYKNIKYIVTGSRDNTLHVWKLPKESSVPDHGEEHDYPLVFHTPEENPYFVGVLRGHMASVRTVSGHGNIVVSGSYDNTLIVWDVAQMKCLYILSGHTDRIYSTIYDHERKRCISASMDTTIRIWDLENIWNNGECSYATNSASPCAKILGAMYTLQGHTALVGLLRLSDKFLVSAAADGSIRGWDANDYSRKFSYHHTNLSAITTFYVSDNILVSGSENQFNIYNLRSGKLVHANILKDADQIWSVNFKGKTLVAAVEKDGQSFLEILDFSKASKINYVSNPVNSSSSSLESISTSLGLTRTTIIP
The assay can be described thus: anti-MYC immunoprecipitation from yeast lysate, immunoblot.

For assay [2], the target named is T2, Met30 (yeast, UniProt P39014 1-640).
T2 construct: Endogenous protein in yeast lysates, detected with anti-Met30 antibodies; also called endogenous Met30
T2 sequence: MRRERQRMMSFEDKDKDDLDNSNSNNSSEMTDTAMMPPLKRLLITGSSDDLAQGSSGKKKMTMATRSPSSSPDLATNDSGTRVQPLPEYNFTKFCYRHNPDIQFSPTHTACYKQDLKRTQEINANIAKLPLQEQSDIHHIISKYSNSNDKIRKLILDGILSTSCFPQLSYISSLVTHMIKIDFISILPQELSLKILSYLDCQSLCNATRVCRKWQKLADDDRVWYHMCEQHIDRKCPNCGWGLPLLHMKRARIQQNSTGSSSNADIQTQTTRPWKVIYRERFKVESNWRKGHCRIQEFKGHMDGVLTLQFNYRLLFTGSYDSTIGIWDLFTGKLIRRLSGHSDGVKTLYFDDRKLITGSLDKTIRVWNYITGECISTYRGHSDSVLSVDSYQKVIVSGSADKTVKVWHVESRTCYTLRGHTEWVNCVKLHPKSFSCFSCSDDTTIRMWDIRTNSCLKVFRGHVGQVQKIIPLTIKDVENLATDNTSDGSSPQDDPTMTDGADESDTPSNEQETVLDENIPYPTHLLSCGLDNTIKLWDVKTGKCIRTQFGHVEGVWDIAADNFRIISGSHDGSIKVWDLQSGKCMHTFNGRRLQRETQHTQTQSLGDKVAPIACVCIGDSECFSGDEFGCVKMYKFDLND
Described as above.

Assay [3] addresses T3, Grr1 (budding yeast, UniProt P24814 1-1151).
T3 construct: Endogenous protein in yeast lysates, detected with anti-Grr1 antibodies; also called endogenous Grr1
T3 sequence: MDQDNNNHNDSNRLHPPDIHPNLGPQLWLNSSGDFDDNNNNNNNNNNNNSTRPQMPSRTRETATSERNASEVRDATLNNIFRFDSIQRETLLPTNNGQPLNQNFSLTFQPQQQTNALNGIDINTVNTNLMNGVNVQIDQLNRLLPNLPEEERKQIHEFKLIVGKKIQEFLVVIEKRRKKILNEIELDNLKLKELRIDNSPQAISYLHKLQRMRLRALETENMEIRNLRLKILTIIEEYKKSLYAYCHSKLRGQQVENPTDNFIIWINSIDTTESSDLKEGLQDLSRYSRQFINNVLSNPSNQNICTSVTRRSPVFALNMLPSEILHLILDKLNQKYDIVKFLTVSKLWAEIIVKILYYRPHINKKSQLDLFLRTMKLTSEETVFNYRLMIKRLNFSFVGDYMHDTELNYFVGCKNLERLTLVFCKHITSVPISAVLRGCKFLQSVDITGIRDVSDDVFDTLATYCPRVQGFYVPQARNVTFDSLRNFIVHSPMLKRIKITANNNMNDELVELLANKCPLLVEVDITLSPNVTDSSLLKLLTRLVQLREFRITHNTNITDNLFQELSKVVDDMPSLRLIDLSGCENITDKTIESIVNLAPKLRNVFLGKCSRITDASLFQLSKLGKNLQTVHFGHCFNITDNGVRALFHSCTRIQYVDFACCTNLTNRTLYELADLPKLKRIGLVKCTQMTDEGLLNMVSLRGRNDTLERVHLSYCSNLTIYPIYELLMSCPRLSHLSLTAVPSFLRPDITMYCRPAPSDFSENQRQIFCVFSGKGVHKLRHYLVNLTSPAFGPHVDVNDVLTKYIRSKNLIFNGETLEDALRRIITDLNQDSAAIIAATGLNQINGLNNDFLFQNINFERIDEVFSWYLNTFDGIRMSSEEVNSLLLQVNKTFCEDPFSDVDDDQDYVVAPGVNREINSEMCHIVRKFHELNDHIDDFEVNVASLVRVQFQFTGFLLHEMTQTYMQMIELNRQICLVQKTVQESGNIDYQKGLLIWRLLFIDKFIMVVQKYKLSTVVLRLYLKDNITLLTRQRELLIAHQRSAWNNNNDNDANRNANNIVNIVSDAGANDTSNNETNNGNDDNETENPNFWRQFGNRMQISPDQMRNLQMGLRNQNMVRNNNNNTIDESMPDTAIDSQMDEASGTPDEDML
The assay is described as above.

The target in assay [4] is T4, Gal4^AD-Cdc4 isolates (budding yeast, UniProt P07834 1-779, limits assumed).
T4 construct: Library clones; all contained the F-box; also called Cdc4 two hybrid isolates; full length Cdc4 in the two hybrid system
T4 sequence: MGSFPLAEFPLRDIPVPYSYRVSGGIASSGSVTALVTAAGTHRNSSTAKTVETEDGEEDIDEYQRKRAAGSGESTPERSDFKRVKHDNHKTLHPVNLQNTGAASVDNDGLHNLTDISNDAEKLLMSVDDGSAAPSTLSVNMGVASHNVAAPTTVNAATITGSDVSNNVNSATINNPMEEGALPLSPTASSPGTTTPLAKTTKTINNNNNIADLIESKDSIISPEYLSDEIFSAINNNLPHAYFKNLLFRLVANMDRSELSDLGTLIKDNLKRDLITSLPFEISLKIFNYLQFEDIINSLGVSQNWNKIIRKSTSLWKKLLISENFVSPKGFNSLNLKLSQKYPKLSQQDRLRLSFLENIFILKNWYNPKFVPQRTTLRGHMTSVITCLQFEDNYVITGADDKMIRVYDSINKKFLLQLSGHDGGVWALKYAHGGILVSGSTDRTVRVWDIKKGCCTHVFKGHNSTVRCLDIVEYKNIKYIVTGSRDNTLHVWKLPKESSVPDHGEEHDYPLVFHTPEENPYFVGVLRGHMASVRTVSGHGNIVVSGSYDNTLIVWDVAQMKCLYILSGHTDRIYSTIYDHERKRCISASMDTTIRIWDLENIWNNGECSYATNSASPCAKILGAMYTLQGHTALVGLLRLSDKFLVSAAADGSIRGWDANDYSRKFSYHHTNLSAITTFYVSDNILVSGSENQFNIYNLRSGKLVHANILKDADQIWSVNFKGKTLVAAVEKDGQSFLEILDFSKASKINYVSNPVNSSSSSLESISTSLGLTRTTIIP
The assay can be described thus: yeast two-hybrid.

Assay [5] has as its target T5, Gal4^AD-Met30 isolates (yeast, UniProt P39014 1-640, limits assumed).
T5 construct: Library clones; all contained the F-box; also called Met30 two hybrid isolates; full length Met30 in the two hybrid system
T5 sequence: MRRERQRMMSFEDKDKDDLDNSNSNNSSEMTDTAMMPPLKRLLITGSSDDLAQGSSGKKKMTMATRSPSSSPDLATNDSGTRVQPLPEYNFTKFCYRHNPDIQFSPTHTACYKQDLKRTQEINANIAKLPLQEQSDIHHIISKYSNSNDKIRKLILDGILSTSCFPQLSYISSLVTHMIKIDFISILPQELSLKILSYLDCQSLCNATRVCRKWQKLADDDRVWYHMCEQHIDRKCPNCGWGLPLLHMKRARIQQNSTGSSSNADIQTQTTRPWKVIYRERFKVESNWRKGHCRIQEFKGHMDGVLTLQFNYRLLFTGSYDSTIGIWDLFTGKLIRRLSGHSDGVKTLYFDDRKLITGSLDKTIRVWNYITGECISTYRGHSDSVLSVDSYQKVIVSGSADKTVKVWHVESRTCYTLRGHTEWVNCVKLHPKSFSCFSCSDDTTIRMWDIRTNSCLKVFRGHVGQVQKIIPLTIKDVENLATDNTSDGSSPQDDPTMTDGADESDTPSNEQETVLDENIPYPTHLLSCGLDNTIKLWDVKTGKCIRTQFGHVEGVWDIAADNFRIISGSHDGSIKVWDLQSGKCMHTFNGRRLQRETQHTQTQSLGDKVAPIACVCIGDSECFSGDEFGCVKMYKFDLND
In words: yeast two-hybrid.

B1: Cdc53^Δ9-280 (MYC-tagged) (other, not shown: small tags and cut ends)
chain: MSETLPRSMALNKVLITDHIEKLENEFVVLLDARDIEKITSLYALIRRDFTLIPRMASVFENYVKKTGENEISSLLAMHKHNIMKNENANPKKLALMTAHSLSPKDYIKKLLEVHDIFSKIFNESFPDDIPLAKALDNACGAFININEFALPAGSPKSATSKTSEMLAKYSDILLKKATKPEVASDMSDEDIITIFKYLTDKDAFETHYRRLFAKRLIHGTSTSAEDEENIIQRLQAANSMEYTGKITKMFQDIRLSKILEDDFAVALKNEPDYSKAKYPDLQPFVLAENMWPFSYQEVEFKLPKELVPSHEKLKESYSQKHNGRILKWLWPLCRGELKADIGKPGRMPFNFTVTLFQMAILLLYNDADVLTLENIQEGTSLTIQHIAAAMVPFIKFKLIQQVPPGLDALVKPETQFKLSRPYKALKTNINFASGVKNDILQSLSGGGHDNHGNKLGNKRLTEDERIEKELNTERQIFLEACIVRIMKAKRNLPHTTLVNECIAQSHQRFNAKVSMVKRAIDSLIQKGYLQRGDDGESYAYLA
notes: Deletion built with natural and engineered restriction sites; also called CDC53^MΔ9-280; pMT1850
Take B1: the binding result in assay [1], in assay [2] and in assay [3] was “no binding” throughout.

B2: Gal4^DBD-Cdc53^ΔN (other, not shown: small tags and cut ends)
chain: MALNKVLITDHIEKLENEFVVLLDARDIEKITSLYALIRRDFTLIPRMASVFENYVKKTGENEISSLLAMHKHNIMKNENANPKKLALMTAHSLSPKDYIKKLLEVHDIFSKIFNESFPDDIPLAKALDNACGAFININEFALPAGSPKSATSKTSEMLAKYSDILLKKATKPEVASDMSDEDIITIFKYLTDKDAFETHYRRLFAKRLIHGTSTSAEDEENIIQRLQAANSMEYTGKITKMFQDIRLSKILEDDFAVALKNEPDYSKAKYPDLQPFVLAENMWPFSYQEVEFKLPKELVPSHEKLKESYSQKHNGRILKWLWPLCRGELKADIGKPGRMPFNFTVTLFQMAILLLYNDADVLTLENIQEGTSLTIQHIAAAMVPFIKFKLIQQVPPGLDALVKPETQFKLSRPYKALKTNINFASGVKNDILQSLSGGGHDNHGNKLGNKRLTEDERIEKELNTERQIFLEACIVRIMKAKRNLPHTTLVNECIAQSHQRFNAKVSMVKRAIDSLIQKGYLQRGDDGESYAYLA
notes: Made by NcoI digestion and religation; also called pMT954; Cdc53 lacking the N-terminal 280 residues
For the molecule B2, the binding result in assay [4] and in assay [5] was “no binding” in each case.

The values above are taken from patent publication US6426205 (MOUNT SINAI HOSPITAL, dated 2002).
